# Test results as given in PMC3867114, “Kinetic analysis of the interactions between plant thioredoxin and target proteins” (Frontiers in Plant Science, 2013).
# What was measured:
# [1] = target: the molecule itself; assay: SEC; TSK-G2000SWXL in H buffer, 280 nm; as a2 but without NEM treatment before the chromatography (for MDH: second round of the fractionated complex)
# [2] = target: Trxh1 mutant with a C43S substitution (Arabidopsis thaliana) (UniProt P29448); assay: SPR; Biacore X, 25°C; Trx variant immobilised as ligand on a CM5 chip by amine coupling (800–900 RU); target protein injected as analyte; H buffer (10 mM HEPES-NaOH, 150 mM NaCl, 50 μM EDTA, pH 7.4) with 0.005% Surfactant P20; 1:1 model for MDH, double exponential model for PrxQ; apparent (mixed disulfide formation with Trxh1CS)
# [3] = target: the molecule itself; assay: mixed disulfide complex formation, non-reducing SDS-PAGE with N-terminal sequencing; 50 μM Trxh1CS and 50 μM PrxQ incubated for the periods indicated, quenched with 5% TCA, non-reducing SDS-PAGE
binder,measurement,setting,value
"Arabidopsis thaliana cytosolic malate dehydrogenase, oxidized form (enzyme, UniProt P93819 1-332, looked up, Cys330–Cys330 intermolecular disulfide bond (oxidized form), cytosolic malate dehydrogenase (MDH), Arabidopsis thaliana, AT1G04410; also called MDH; oxidized MDH; source: cloned and purified as described in earlier work; oxidized by incubation with 50 μM CuCl2 for 1 h at 30°C) MAKEPVRVLVTGAAGQIGYALVPMIARGIMLGADQPVILHMLDIPPAAEALNGVKMELIDAAFPLLKGVVATTDAVEGCTGVNVAVMVGGFPRKEGMERKDVMSKNVSIYKSQAAALEKHAAPNCKVLVVANPANTNALILKEFAPSIPEKNISCLTRLDHNRALGQISERLSVPVSDVKNVIIWGNHSSSQYPDVNHAKVQTSSGEKPVRELVKDDAWLDGEFISTVQQRGAAIIKARKLSSALSAASSACDHIRDWVLGTPEGTFVSMGVYSDGSYSVPSGLIYSFPVTCRNGDWSIVQGLPIDEVSRKKMDLTAEELKEEKDLAYSCLS",binding result,[1],binds
same,koff,[2],0.000301 s⁻¹
same,kon,[2],247 M⁻¹ s⁻¹
"Trxh1 mutant with a C43S substitution (natural protein, Arabidopsis thaliana, UniProt P29448 1-114, looked up, thioredoxin h1 (Trxh1), cytosolic, Arabidopsis thaliana, AT3G51030, with C43S; Lacks the second cysteine of the catalytic motif; also called Trxh1CS; Trxh1CS mutant; source: expressed and purified as the wild-type Trxh1, with 0.5 mM DTT in all purification procedures) MASEEGQVIACHTVETWNEQLQKANESKTLVVVDFTASWCGPSRFIAPFFADLAKKLPNVLFLKVDTDELKSVASDWAIQAMPTFMFLKEGKILDKVVGAKKDELQSTIAKHLA",binding result,[3],binds
